Source: US20080247955A1

Target: Triggering receptor expressed on myeloid cell-1 (TREM-1), human (human) (UniProt Q9NP99)
Assay: cell-based or functional assay

Sequence of UniProt Q9NP99 (Q9NP99 21-234): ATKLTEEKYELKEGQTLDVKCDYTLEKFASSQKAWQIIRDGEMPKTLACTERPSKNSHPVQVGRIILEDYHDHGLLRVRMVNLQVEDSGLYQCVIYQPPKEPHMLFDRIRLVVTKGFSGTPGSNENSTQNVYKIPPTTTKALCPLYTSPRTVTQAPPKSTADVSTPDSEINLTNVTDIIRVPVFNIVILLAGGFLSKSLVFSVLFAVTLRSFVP

Q: Which results are given for “anti-hTREM-1 antibody (MAB1278, R&D Systems)”?
A: CSF2 (GM-CSF) mRNA induction (microarray, human monocytes): 9.6 fold; INHBA transcript fold change (microarray, human monocytes), confirmed at protein level by ELISA: 96.7 fold; M-CSF transcript fold change (microarray, human monocytes), confirmed at protein level by ELISA: 22 fold; SPP1 transcript fold change (microarray, human monocytes, 2 hours, α-TREM-1 against control antibody): 28 fold
